The target of data set [1] is T1, GST-CDKACTH1 labelled with Cy3 (CDKACTH1-Cy3).
T1 chain: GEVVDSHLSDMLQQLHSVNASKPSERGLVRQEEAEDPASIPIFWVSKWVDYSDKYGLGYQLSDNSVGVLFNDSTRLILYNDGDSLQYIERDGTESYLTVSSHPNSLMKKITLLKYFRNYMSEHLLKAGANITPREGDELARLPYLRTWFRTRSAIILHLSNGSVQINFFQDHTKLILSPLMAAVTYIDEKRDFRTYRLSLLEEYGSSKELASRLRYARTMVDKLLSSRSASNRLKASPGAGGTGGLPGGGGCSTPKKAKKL

Data set [2] deals with GST-CDKACTH1 labelled with Cy3 (CDKACTH1-Cy3). The source holds these as a separate data set.

Like-named read-outs stand apart in the source and are kept apart here.

B1: Plk3 kinase (protein)
chain: MEPAAGFLSPRPFQRAAAAPAPPAGPGPPPSALRGPELEMLAGLPTSDPGRLITDPRSGRTYLKGRLLGKGGFARCYEATDTETGSAYAVKVIPQSRVAKPHQREKILNEIELHRDLQHRHIVRFSHHFEDADNIYIFLELCSRKSLAHIWKARHTLLEPEVRYYLRQILSGLKYLHQRGILHRDLKLGNFFITENMELKVGDFGLAARLEPPEQRKKTICGTPNYVAPEVLLRQGHGPEADVWSLGCVMYTLLCGSPPFETADLKETYRCIKQVHYTLPASLSLPARQLLAAILRASPRDRPSIDQILRHDFFTKGYTPDRLPISSCVTVPDLTPPNPARSLFAKVTKSLFGRKKKSKNHAQERDEVSGLVSGLMRTSVGHQDARPEAPAASGPAPVSLVETAPEDSSPRGTLASSGDGFEEGLTVATVVESALCALRNCIAFMPPAEQNPAPLAQPEPLVWVSKWVDYSNKFGFGYQLSSRRVAVLFNDGTHMALSANRKTVHYNPTSTKHFSFSVGAVPRALQPQLGILRYFASYMEQHLMKGGDLPSVEEVEVPAPPLLLQWVKTDQALLMLFSDGTVQVNFYGDHTKLILSGWEPLLVTFVARNRSACTYLASHLRQLGCSPDLRQRLRYALRLLRDRSPA
On to B1, for which, in data set [1], the “real-time fluorescence kinase assay (Cy3 fluorescence)” value is “Plk1 or Plk3 did not induce any significant changes in the fluorescence of CDKACTH1, in the same range of concentrations”.

B2: recombinant CDK4/Cyclin D (enzyme, part only; not given: Cyclin D partner)
chain: MATSRYEPVAEIGVGAYGTVYKARDPHSGHFVALKSVRVPNGGGGGGGLPISTVREVALLRRLEAFEHPNVVRLMDVCATSRTDREIKVTLVFEHVDQDLRTYLDKAPPPGLPAETIKDLMRQFLRGLDFLHANCIVHRDLKPENILVTSGGTVKLADFGLARIYSYQMALTPVVVTLWYRAPEVLLQSTYATPVDMWSVGCIFAEMFRRKPLFCGNSEADQLGKIFDLIGLPPEDDWPRDVSLPRGAFPPRGPRPVQSVVPEMEESGAQLLLEMLTFNPHKRISAFRALQHSYLHKDEGNPE
For B2, the “real-time fluorescence kinase assay (Cy3 fluorescence)” value in data set [2] is “CDK4/Cyclin D kinase induced changes in CDKACTH1 fluorescence reminiscent of CDK2/Cyclin A”.

The values are drawn from US20150355179.
